Source: patent publication US20230055566A1

How the values were obtained:
[1] = target: recombinant human FGFR1b-Fc (human) (UniProt P11362); assay: SPR (Biacore T200), hFGFR1b-Fc amine-coupled on CM5 chip, antibody as analyte
[2] = target: recombinant human FGFR1b-Fc (human) (UniProt P11362); assay: SPR (Biacore), hFGFR1b-Fc immobilized on CM5 chip, antibody injected at 0-200 nM
[3] = target: human FGFR2b (beta)-Fc (human) (UniProt P21802); assay: SPR (Biacore), hFGFR2b-Fc immobilized on CM5 chip, antibody injected at 0-200 nM
[4] = target: human FGFR2b on engineered Ba/F3 cells (Ba/F3-FGFR2b) (human), P21802; assay: cell-based or functional assay
human FGFR2b on engineered Ba/F3 cells (Ba/F3-FGFR2b) (human), P21802, sequence (P21802 22-821, change not shown): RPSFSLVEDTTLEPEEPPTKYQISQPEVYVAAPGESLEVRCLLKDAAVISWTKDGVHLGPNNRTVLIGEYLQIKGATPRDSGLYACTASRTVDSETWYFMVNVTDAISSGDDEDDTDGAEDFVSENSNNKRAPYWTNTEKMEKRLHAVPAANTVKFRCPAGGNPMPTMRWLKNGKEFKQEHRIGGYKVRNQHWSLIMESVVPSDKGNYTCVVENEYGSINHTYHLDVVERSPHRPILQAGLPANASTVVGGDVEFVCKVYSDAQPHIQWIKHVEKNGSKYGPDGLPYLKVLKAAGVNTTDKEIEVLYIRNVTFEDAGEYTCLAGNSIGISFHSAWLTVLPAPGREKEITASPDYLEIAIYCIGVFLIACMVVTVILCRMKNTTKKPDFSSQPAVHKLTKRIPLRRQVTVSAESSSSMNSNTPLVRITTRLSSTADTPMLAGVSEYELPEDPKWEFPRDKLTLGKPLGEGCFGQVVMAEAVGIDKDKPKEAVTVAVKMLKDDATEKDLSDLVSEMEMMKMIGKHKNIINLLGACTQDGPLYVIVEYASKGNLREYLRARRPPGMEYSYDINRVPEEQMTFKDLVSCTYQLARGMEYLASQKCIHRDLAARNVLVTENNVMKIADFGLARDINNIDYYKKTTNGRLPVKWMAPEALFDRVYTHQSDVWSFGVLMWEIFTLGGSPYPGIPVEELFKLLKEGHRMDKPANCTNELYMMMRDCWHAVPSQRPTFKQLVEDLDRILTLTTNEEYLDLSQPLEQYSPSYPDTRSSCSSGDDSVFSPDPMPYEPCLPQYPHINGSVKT

[5] = target: recombinant human FGFR2b-Fc (murine Fc) (human) (UniProt P21802); assay: ELISA, plate coated with human FGFR2b-Fc, anti-human IgG HRP
[6] = target: endogenous FGFR2b on the cell membrane of human gastric cancer cells (KATOIII, SNU16) (human) (UniProt P21802); assay: flow cytometry on FGFR2b expressing KATOIII cells
[7] = target: human FGFR2b (beta)-Fc (human) (UniProt P21802); assay: ELISA, plate coated with HuFGFR2b

recombinant human FGFR1b-Fc (human), sequence (P11362 other isoform, or with tags, fused parts or gaps): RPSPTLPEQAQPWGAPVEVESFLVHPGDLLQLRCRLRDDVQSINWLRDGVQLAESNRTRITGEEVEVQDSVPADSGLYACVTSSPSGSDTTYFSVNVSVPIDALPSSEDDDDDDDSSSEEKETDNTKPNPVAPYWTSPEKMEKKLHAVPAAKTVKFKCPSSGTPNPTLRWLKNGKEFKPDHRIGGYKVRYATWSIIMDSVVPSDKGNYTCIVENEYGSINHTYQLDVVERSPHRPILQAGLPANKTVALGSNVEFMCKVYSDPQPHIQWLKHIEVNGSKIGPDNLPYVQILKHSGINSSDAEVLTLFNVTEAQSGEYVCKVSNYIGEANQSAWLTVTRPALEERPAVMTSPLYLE

| Binder | Kd [3] [nM] | koff [3] [s⁻¹] | kon [3] [M⁻¹ s⁻¹] | also measured |
| --- | --- | --- | --- | --- |
| FPA144 (antibody, INN chains, looked up, V domains shown) VH: QVQLVQSGAEVKKPGSSVKVSCKASGYIFTTYNVHWVRQAPGQGLEWIGSIYPDNGDTSYNQNFKGRATITADKSTSTAYMELSSLRSEDTAVYYCARGDFAYWGQGTLVTVSS VL: DIQMTQSPSSLSASVGDRVTITCKASQGVSNDVAWYQQKPGKAPKLLIYSASYRYTGVPSRFSGSGSGTDFTFTISSLQPEDIATYYCQQHSTTPYTFGQGTKLEIK |  |  |  | Kd [1]: 225 nM; koff [2]: 0.00746 s⁻¹; kon [2]: 33200 M⁻¹ s⁻¹ |
| Ab hu21-26 (antibody, human IgG1, V domains shown) VH: EVQLVQSGAEVKKPGASVKVSCKASGYTFTNYWMHWVRQAPGQGLEWMGAIYPENRDINYNQKFKGRVTLTRDTSISTAYMELSRLRSDDTAVYYCTSRGDYWGQGTTVTVSS VL: AIQLTQSPSSLSASVGDRVTITCSASSGLSYMSWYQQKPGKAPKLLIYDTSNLASGVPSRFSGSGSGTDFTLTISSLQPEDFATYYCQQWSSYPYTFGQGTKLEIK | 0.482 | 5.58e-05 | 116000 |  |
| Ab hu21-21 (antibody, V domains shown) VH: EVQLVQSGAEVKKPGASVKVSCKASGYTFTNYWMHWVRQAPGQGLEWMGAIYPENGDINYNQKFKGRVTLTRDTSISTAYMELSRLRSDDTAVYYCTSRGDYWGQGTTVTVSS VL: AIQLTQSPSSLSASVGDRVTITCSASSGLSYMSWYQQKPGKAPKLLIYDTSNLASGVPSRFSGSGSGTDFTLTISSLQPEDFATYYCQQWSSYPYTFGQGTKLEIK | 0.25 | 2.45e-05 | 98000 |  |
| Ab 21c (antibody, V domains shown) VH: EVQLHQSGTVLARPGASVKMSCKTSGYTFTNYWMHWIKQRPGQGLEWIGAIYPENGDINYNQKFKGKAKLTAVTSASTAYMDLSSLTNEDSAVYYCTSRGDYWGQGTTLTVSS VL: QIVLTQSPAIMSASPGEKVTMTCSASSGLSYMSWYQQKPGSSPRLLIYDTSNLASGVPVRFSGSGSGTSYSLTISRMEAEDAATYYCQQWSSYPYTFGGGTKLEIK | 0.269 | 2.46e-05 | 91300 | GI50, inhibition of FGF7-induced BaF3 cell proliferation (MTS, 72 hours) [4]: 10 nM; EC50 (read off the curve) [5]: 0.4 nM; EC50 [6]: 8 nM |
| Ab 21 (antibody, V domains shown) VH: EVQLHQSGTVLARPGASVKMSCKTSGYTFTNYWMHWIKQRPGQGLEWIGAIYPENGDINYNQKFKGKAKLTAVTSASTAYMDLSSLTNEDSAVYYCTSRGDYWGQGTTLTVSS VL: QIVLTQSPAIMSASPGEKVTMTCSASSGLSYMSWYQQKPGSSPRLLIYDTSNLASGVPVRFSGSGSGTSYSLTISRMEAEDAATYYCQQWSSYPYTFGGGTKLEIK |  |  |  | EC50 (read off the curve) [7]: 0.4 nM |
